In series [1] the target is T1, SARS-CoV-2 spike protein receptor-binding domain (RBD) (SARS-CoV-2, UniProt P0DTC2 P0DTC2:319-541). The series can be described thus: […]; PBS pH 7.4, room temperature.
For the next series, the target named is BSA (UniProt P02769 P02769:25-607).
Series [2] has as its target T1, SARS-CoV-2 spike protein ….

BSA, sequence (P02769 25-607, one chain of several): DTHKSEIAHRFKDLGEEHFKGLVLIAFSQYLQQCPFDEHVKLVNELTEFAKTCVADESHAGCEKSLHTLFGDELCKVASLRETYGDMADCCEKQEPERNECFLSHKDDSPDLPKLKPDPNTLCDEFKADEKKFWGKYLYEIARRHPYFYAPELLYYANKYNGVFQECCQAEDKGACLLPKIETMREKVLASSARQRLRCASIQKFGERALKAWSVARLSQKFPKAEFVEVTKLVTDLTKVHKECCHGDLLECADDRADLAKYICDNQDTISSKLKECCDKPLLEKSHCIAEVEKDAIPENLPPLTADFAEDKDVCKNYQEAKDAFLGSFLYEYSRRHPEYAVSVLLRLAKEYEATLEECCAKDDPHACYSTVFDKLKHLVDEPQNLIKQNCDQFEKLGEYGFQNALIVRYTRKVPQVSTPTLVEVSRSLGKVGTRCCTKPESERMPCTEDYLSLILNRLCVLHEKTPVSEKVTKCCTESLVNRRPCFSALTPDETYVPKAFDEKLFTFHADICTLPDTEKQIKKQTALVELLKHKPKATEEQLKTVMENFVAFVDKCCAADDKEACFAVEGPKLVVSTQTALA

B1: RBD-46 (ssDNA)
DNA: GGGGCTGCTCGGGATTGCGGATATGG
In the case of B1, the affinity in series [1], expressed as Kd, was 34.7 nM. Besides, the binding result with BSA is “no binding”.

B2: RBD-45 (ssDNA)
DNA: AGGGGCTGCTCGGGATTGCGGATATGGA
On to B2, for which the binding result in series [2] is reported as “binds”.
